Consider 21 molecules from patent US20230279105A1 (SINGLE CELL TECHNOLOGY, published 2023).

In the assay the target is T1, Human TIM-3 Human Fc tagged protein (human, fluorescently labeled with HiLyte Fluor 555 (sites not given)).
T1 construct: Bought construct; also called TIM-3 protein tagged with human Fc; ACROBiosystems catalog no: TM3-H5258
The assay is described as follows: capture slide probed with labeled TIM-3-Fc.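 Further: IgG from single CD138-enriched plasma cells, isolated from lymphocytes, immobilized on a derivatized glass slide.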

B1: SCT-Fa125 (antibody, V domains shown)
VH: QVQLQQPGAELVMPGASVKLSCKASGYTFTSYWMHWVKQRPGQGLEWIGEIDPSDNYTNYNQKFKGKATLTVDGSSSTAYMQLSSLTSEDSAVYYCARNYGSNYVGYFDYWGQGTTLTVSS
VL: DIQMTQTTSSLSASLGDRVTISCRASQGISNYLNWYQQKPDGTVKLLIYYTSRFHSGVPSRFSGSGSGTDYSLTISNLEQEDIATYFCQQGNSLPWTFGGGTKLEIK
notes: murine IgG
Turning to B1, the binding result is “binds”.

B2: SCT-Fa133 (antibody, V domains shown)
VH: QVQLQQPGAELVMSGASVKLSCKASGYTFTTYWMHWVRQRPGQGLEWIGEIDPSDSYSNNNQNFKAKATLTVDKSSSTAYMQLGSLTSEDSAVYYCARNYGSNYVGYFDYWGQGTTLTVSS
VL: DIQMTQSTSSLSASLGDRVTISCRASQDITNYLNWYQQKPDGTVKLLIYHTSRLHAGVPSRFSGSGSGTDYSLTISNLDQEDIATYFCQQGNALPWTFGGGTKLEIK
notes: murine IgG
For the molecule B2, the binding result is listed as “binds”.

B3: SCT-Fa144 (antibody, V domains shown)
VH: QVQLQQPGAELVTPGASVKLSCKASGYTFTTYWMHWVKQRPGQGLEWIGEIDPSDSYRNYNQKFKGKATLTVDKSSSTAYMQLSSLTSEDSAVYYCARNYGSNYVGYFDYWGQGTALTVSS
VL: DIQMTQTTSSLSASLGDRVTISCRASQDITNYLNWYQQRPDGTVKLLIYYTSRLHSGVPSRFSGSGSGTDYSLTISNLAQGDIATYFCQQASTLPWTFGGGTKLDIK
notes: murine IgG
As for B3, the binding result was “binds”.

B4: SCT-Fa132 (antibody, V domains shown)
VH: QVQLQQPGAELVMPRASVKLSCKASGYTFTSYWMHWVKQRPGQGLEWIGEIDPSDGYTNYNHKFKGKATLTVDKSSSTAYMQLSSLTSEDSAVYYCARNYGSNYVGYFDYWGQGTTLTVSS
VL: DIQMTQTTSSLSASLGDRVTISCRASQDISNYLNWYQQKRDGTVKLLIYYTSRFHSGVPSRFSGSGSGTDYSLTISNLEQEDIATYFCQQGNTLPWTFGGGTKLEIK
notes: murine IgG
B4: the binding result is on record as “binds”.

B5: SCT-Fa126 (antibody, V domains shown)
VH: QVQLQQPGAELVMPGASVKLSCKASGYTFTSYWMHWVKQRPGQGLEWIGEIDPSDSYSNYNQKFKGKATLTVDKSSSTAYMQLISLTSEDSAVYYCARNYGSNYVGYFDYWGQGTTLTVSS
VL: DIQMTQTTSSLSASLGDRVTISCRASQDISNYLNWYQQKPDGTVKLLIYYTSRLLSGVPSRFSGSGSGTDYSLTISNLEQEDIATYFCQQGNTLPWTFGGGTNLEIK
notes: murine IgG
With B5, the binding result is given as “binds”.

B6: SCT-Fa190 (antibody, V domains shown)
VH: QVQLRQPGAELVMPGASVKLSCKASGYTFNTYWMHWVKQRPGQGLEWIGEIDPSDSYTNYNQNFKGKATLTVDKSSSTAYLQLSSLTSEDSAVYYCARNYGSNYVGYFDYWGQGTTLTVSS
VL: DIQMTQTTSSLSASLGDRVTISCRASQDISNYLNWYQQKPDGTVKLLIYYTSRLPSGVPSSFSGSGSGTDYSLTISNLEQEDIATYFCQQAKALPWTFGGGTKLEIK
notes: murine IgG
Consider B6, for which the binding result was “binds”.

B7: SCT-Fa130 (antibody, V domains shown)
VH: QVQLQQPGAELVMPGASVRLSCKASGYTFTTYWMHWVRQRPGQGLEWIGEIDPSDSYTNYNQNFKGKATLTVDKSSSTAYLQLSSLTSEDSAVYYCARNYGSNYVGYFDHWGQGTTLTVSS
VL: DIQMTQTTSSLSASLGDRVTISCRASQDISNYLNWYQQKPDGTVKLLIYYTSRLHSGVPSSFSGSGSGTDYSLTISNLEQEDIATYFCQQANALPWTFGGGTKLEIK
notes: murine IgG
Take B7: the binding result is given as “binds”.

B8: SCT-Fa129 (antibody, V domains shown)
VH: QVQLQQPGAELVMPGASVKLSCKASGYTFTTYWMHWVKQRPGQGLEWIGEIDPSDSYTNYNQKFKGKATLTVDKSSSTAYMQLSSLTSEDSAVYYCARNYGSNYVGYFDYWGQGTTLTVSS
VL: DIQLTQTTSSLSASLGDRVTINCRASQDISNYLNWYQQKPDGTVKLLIYYTSRLLSGVPSSFSGSGSGTDYSLTISSLEQEDIATYFCQQGKALPWTFGGGTKLEIK
notes: murine IgG
Turning to B8, the binding result was “binds”.

B9: SCT-Fa131 (antibody, V domains shown)
VH: QVQLQQPGAELVMPGASVRLSCKTSGYTFSTYWMHWVKQRPGQGLEWIGEIDPSDSYTNYNQNFKGKATLTVDKSSSTAYMKLSSLTSEDSAVYYCARNYGSNYVGYFDYWGQGTTLTVSS
VL: DIQMTQTASSLSASLGDRVTISCRASQDINNYLNWYQQKPDGTVKLLIYYTSRLHSGVPSSFSGSGSGTDYSLTISNLEQEDIATYFCQQGNALPWTFSGGTKLEIK
notes: murine IgG
Consider B9, for which the binding result is listed as “binds”.

B10: SCT-Fa128 (antibody, V domains shown)
VH: QVQLQQPGAELVMPGASVKLSCKASGYTFTTYWMHWVKQRPGQGLEWIGEIDPSDSYSNYNQKFKGKATLTVDKSSSTAYMQLSSLTSEDSAVYYCARNYGSNYVGYFDYWGQGTTLTVSS
VL: DIQLTQTTSSLSASLGDRVTINCRASQDISNYLNWYQQKPDGTVKLLIYYTSRLLSGVPSSFSGSGSGTDYSLTISSLEQEDIATYFCQQGKALPWTFGGGTKLEIK
notes: murine IgG
On to B10, for which the binding result was “binds”.

B11: SCT-Fa082 (antibody, V domains shown)
VH: QGQLQQPGAEVVKPGAAVKLSCKASGYTFTSYWMQWIKQRPGQGLEWIGEIDPSDNYTDYNQNFKGKATLTVDTSSSTAYLQLSSLTSEDSAVYYCAREGAFSSPFAYWGPGTLVTVSS
VL: DILMTQSPSSMSVSLGDTVSIICHASQDIRSNIGWLQQKPGKSFKGLIYHGTNLEDGVPSRFSGSGSGADYSLTISSLESEDFADYYCVQYVQFPRTFGGGTKLEIK
notes: murine IgG
On to B11, for which the binding result is listed as “binds”.

B12: SCT-Fa081 (antibody, V domains shown)
VH: QGQLQQPGAEVVKPGAAVKLSCKASGYTFTSYWMQWIKQRPGQGLEWIGEIDPSDNYTDYNQNFKGKATLTVDTSSSTAYLQLSSLTSEDSAVYYCAKEGAFSSPFAYWGPGTLVTVSS
VL: DILMTQSPSSMSVSLGDTVSIICHASQDIRSNIGWLQQKPGKSFKGLIYHGTNLEDGVPSRFSGSGSGADYSLTISSLESEDFADYYCVQYVQFPRTFGGGTKLEIK
notes: murine IgG
Regarding B12, the binding result was “binds”.

B13: SCT-Fa078 (antibody, V domains shown)
VH: QGQLQQPGAEVVKPGAAVKLSCKASGYTFTSYWMQWIKQRPGQGLDWIGEIDPSDNYTDYNQNFKGKATLTVDTSSNTAYLQLSSLTSEDSAVYYCAREGAFSSPFAYWGPGTLVTVSS
VL: DILMTQSPSSMSVSLGDTVSIICHASQDIRSNIGWLQQKPGKSFKGLIYHGTNLEDGVPSRFSGSGSGADYSLTISSLESEDFADYYCVQYVQFPRTFGGGTKLEIK
notes: murine IgG
With B13, the binding result is reported as “binds”.

B14: SCT-Fa080 (antibody, V domains shown)
VH: QGQLQQPGAEVVKPGAAVKLSCKASGYTFTSYWMQWIKQRPGQGLEWIGEIDPSDNYTDYNQHFKGKATLTVDTSSSTAYLQLSSLTSEDSAVYYCAREGAFSSPFAYWGPGTLVTVSS
VL: DILMTQSPSSMSVSLGDTVSIICHASQDIRSNIGWLQQKPGKSFKGLIYHGTNLEDGVPSRFSGSGSGADYSLTISSLESEDFADYYCVQYVQFPRTFGGGTKLEIK
notes: murine IgG
For the molecule B14, the binding result was “binds”.

B15: SCT-Fa136 (antibody, V domains shown)
VH: QVQLQQPGAELVRPGTSVKLSCKASGYTFINYWMHWVKQRPGQGLEWIGVIDPSHTSTSYNQKFKGKATLTVDTSSTTTSMQLTSLTSEDSAVYYCARNDYDGGYFDYWGQGTTLTVSS
VL: DVVMTQIPLSLPVSLGDQASISCRSSQSLVHSNGNTYLHWYLQKPGQSPKLLIYTVSNRFSGVPDRFSGSGSGTDFTLKISRLEAEDLGVYFCSQTTHVPWTFGGGTKLEIK
notes: murine IgG
Regarding B15, the binding result is “binds”.

B16: SCT-Fa143 (antibody, V domains shown)
VH: QVQLQQPGAELVRSGTSVKLSCKASGYTFISYWMHWVKQRPGQGLEWIGVIDPSDTNTNYNQKFRGKATLTVDTSSSTAYMQLSSLTSEDSAVYFCARNDYDGGYFDYWGQGTTLTVSS
VL: DVVMTQTPLSLPGSLGDQASISCRSSQSLVHSNGNTYLHWYLQKSGQSPKLLIYKVSNRFSGVPDRFSGSGSGTDFTLKISRVEAEDLGLYFCSQTTHVPWTFGGGTKLEIK
notes: murine IgG
Take B16: the binding result is recorded as “binds”.

B17: SCT-Fa142 (antibody, V domains shown)
VH: QVQLQQPGAELVRPGTSVRLSCKASGYSFTIYWMHWVKQRPGQGLEWIGVIDPSTSNTDYNQKFKGKATLTVDTSSSTAYMQLRSLSSEDSAVYYCARNDYDGGYFDYWGQGTTLTVSS
VL: DVVMTQTPLSLPVSLGDQASISCRSSQRLVHSNGNTYLHWYLQKTGQSPKLLIYKVSNRFSGVPDRFSGSGSGTDFTLKISRVEAEDLGVYFCSQSTHVPWTFGGGTKLEIK
notes: murine IgG
With B17, the binding result was “binds”.

B18: SCT-Fa141 (antibody, V domains shown)
VH: QVQLQQPGAELVRPGTSVNLSCKASGYTFTSYWMHWVKQRPGQGLEWLGVIDPSDSNTNYNQKFKGKATLTVDTSSSTAYMQLSSLTSEDSAVYYCSRNDYDGGYFDYWGQGTTLTVSS
VL: DVVMTQTPLSLPVSLGDQASISCRSSQSLVHSNGNTYLHWYLQKPGQSPKLLIYTVSNRFSGVPDRFSGSGSGTDFTLKISRVEAEDLGIYFCSQSTHVPWTFGGGTKLEIK
notes: murine IgG
For B18, the binding result is listed as “binds”.

B19: SCT-Fa138 (antibody, V domains shown)
VH: QVQLQQPGAELVRPGTSVKLSCKASGYTFTRYWMHWVRQRPGQGLEWIGVIDPSSSSTDYNQKFKGKATLTVDTSSSTAYMQLSSLTSEDSAVYYCARNDYDGGYFDYWGQGTTLTVSS
VL: DVVMTQSPLSLPVSLGDQASISCRSSQSLVHSNGITYLHWYLQKPGQSPNLLIYKVSNRFSGVPDRFSGSGSGTDFTLKISRVEAEDLGVYFCSQTTHVPWTFGGGTKLEIK
notes: murine IgG
Turning to B19, the binding result is listed as “binds”.

B20: SCT-Fa134 (antibody, V domains shown)
VH: QVQLQQPGAELVRPGSSVKLSCKASGYNFTNYWIDWVKQRPGQGLAWIGDIYPSDNKTHYNQNFKGKATLTVDKSSNTAYMQLSSLTSEDSAVYYCAASMDYWGQGTSVTVSS
VL: DIVMTQSPSSLTVTAGEKVTMSCKSSQSLLNSKNQKNFLTWYQQKPGQPPKLLIYWASTRESGVPDRFTGSASGTDFTLTISSVQAEDLAVYYCQNDYSYPYTFGGGTKLEIK
notes: murine IgG
For B20, the binding result is listed as “binds”.

B21: SCT-Fa135 (antibody, V domains shown)
VH: QVQLQQPGAELVRPGSSVKLSCKASGYNFTSYWIDWVKQRPGQGLEWIGDIYPSDSKTHYNQNFKGKATLTVDKSSNTAYMQLSNLTSEDSAVYYCATSMDYWGQGTSVTVSS
VL: DIVMTQSPSSLTVTAGEKVTMSCKSSQSLLNSKNQKNFLTWYQQKPGQPPKLLIYWASTRESGVPDRFTGSASGTDFTLTISSVQAEDLAVYYCQNDYDYPYTFGGGTKLEIK
notes: murine IgG
Consider B21, for which the binding result is given as “binds”.
